From article PMC9916836 come the findings set out here.

The target of this data set is T1, UvrY-His6 (Escherichia coli O157:H7 (EHEC; EDL933?)) (UniProt P66798).
T1 sequence: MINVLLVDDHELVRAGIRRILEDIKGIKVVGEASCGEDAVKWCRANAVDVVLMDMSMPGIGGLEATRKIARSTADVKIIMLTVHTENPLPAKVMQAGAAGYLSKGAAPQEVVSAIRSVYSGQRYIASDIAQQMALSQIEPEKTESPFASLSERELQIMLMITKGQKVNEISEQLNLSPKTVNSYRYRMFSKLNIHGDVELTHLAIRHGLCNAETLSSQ
Kind of data set: EMSA. A general note: Mobility shift assays separate free from complexed probe on a gel.
As for “GTTATCGCAGGGAGCCACACAGCGTGTGTTGGACGCGACTCAGCTTTACCTTGGTGAGATTGGTTATTCACCACTGTTAACGGCCGAAGAAGAAGTTTATTTTGCGCGTCGCGCACTGCGTGGAGATGTCGCCTCTCGCCGCCGGATGATCGAGAGTAACTTGCGTCTGGTGGTAAAA (double strand) [rpoS coding region]”, the binding entry was “no binding”.

For “GGGTGCTACTTTACGCCTTTGCTTTAAACAAACAATCAACCGCCATCAGTATTTGCACATTTTCAGAGTTTTATATAAAAGCAATTAACTGATTTATATAGCTTATTTGACATGCATCGCAGAATTTTCTCTGCTATTTCGCATAAAGACTATCGGCAATGTCTCACAAAGCGTATGGCTTTTACTTACAACGCTCACGCCGAAAAATCCGCCTTTTATTATGGTTCAGGTATAATCGCCGCAAAGCTTTGACTGACGGAGACGACCGCTT (double strand) [PcsrC]”, the binding result was “binds”.

For “CATTAGCCATTGGAAACTCACGTAATCATTAATTATGAATATTCCATTAAATAGTACTGTACAACAGCTTCCTTTCTACTCTATTCTTAGACGATGTAAGTTCACCATATTTTTTCTCATTGTTCAACCACCAGGATGAATAAAATTTAAAAATGTTATCCTCATATAAAATAAAACTTCTCAATGGTGCGATGCG (double strand) [PLEE4]”, the binding result was “no binding”.

With “AGATTCATCTGCAGGCTCTGAAGTAAGTATACGTGTGAATATTATTGCTTGAAAAAGCGTATTGGATAATATATACAGTATATGTACTTTATGTACATTGCAACTATTTAAATAATATAATAGTTGCCTATGGGATAATTTGGTTATTTATAACCAGGTAAATGTCTAAATTAGACAAAAGGAGAAAGATCAATGGAAGCAGCAAATTTAAGTCCTTCTGGTGCAGTAATG (double strand) [PLEE2/3]”, the binding entry was “no binding”.
